Reference: US5786324A, “Synthetic peptides with bactericidal activity and endotoxin neutralizing activity for gram negative bacteria and methods for their use” (priority 1994, dated 1998)
Entries after “also recorded” stand apart in the source; their conditions may differ. Where two headings read alike, the source gives them in different places.

Assays:
[1] = system: Staphylococcus aureus 502A; format: cell-based; details: S. aureus; pH 7.0; 4.1 × 10^-9 M
Protocol: (§1) The synthetically produced peptides were assayed for bactericidal activity against Pseudomonas aeruginosa, type 1, P. cepacia ATCC 25608, E. coli B, and Staphylococcus aureus 502A by standard methods.
(§2) Pseudomonas aeruginosa type 1 is a clinical isolate maintained in the laboratory since 1972. The isolate remains a smooth strain and was serotyped by the scheme of Homma. Homma, Jpn. J. Exp. Med., 46:329 (1976). A rough strain E. coli B and S. aureus 502A were obtained from Paul Quie, University of Minnesota. The characteristics of the S. aureus strain have been described in Shinefield et al., Amer. J. Dis. Chil., 105:646 (1963). Pseudomonas cepacia ATCC 25608 was purchased from the American Type Culture Collection in 1980. S. aureus and E. coli were maintained on nutrient agar plates and the Pseudomonas strains were maintained on blood agar plates.
(§3) Pyrogen-free solutions were used throughout this assay and all methods which follow. Log phase bacteria were prepared from a culture in brain heart infusion broth as previously described except that bacteria were washed and resuspended in saline with adjustment to an optical density at 650 nm which would yield 3×10^8 CFU/ml. Bacteria were then diluted 1:10 in 0.08M citrate phosphate buffer, pH 5.6 or pH 7.0, for use in the assay. S. aureus rapidly lost viability in the pH 5.6 buffer and was studied only at pH 7.0. Bactericidal activity was determined by dose response and where an LD50 is indicated, it was determined by linear regression.

[2] = Storage stability of bactericidal activity of B/PI in elution buffer; format: physicochemical; details: 0.05M glycine buffer, pH 2.5, with 0.5M NaCl; 4° C. and -70° C.; prolonged periods
Protocol: Recombinant products can be purified from infected cells by immunoaffinity chromatography with the appropriate immobilized rabbit anti-peptide antibody or a mouse monoclonal antibody to B/PI. B/PI was reproducibly purified by application of partially purified samples of 2 mg protein to a 1.5×180 cm Toyopearl HW55S (Toso Haas) column or 200 mg protein to a TSX2000 HPLC (Beckman) column. The elution buffer for both columns is 0.05M glycine buffer, pH 2.5, with 0.5M NaCl. Recovery of B/PI protein was excellent and 100% of bactericidal activity is retained. The bactericidal activity of B/PI in this buffer was stable at 4° C. and at -70° C. for prolonged periods. The columns resolve protein standards over the range of 2-70 kD and can be used for all steps separation of fragments of B/PI by molecular weight. Reverse phase HPLC can be used if necessary.

[3] = system: P. cepacia ATCC 25608; test: Bactericidal assay, P. cepacia; format: cell-based, Pseudomonas cepacia; details: for % Killing of 5 × 10^6 Bacteria: P. cepacia, 4.1 × 10^-9 M
Protocol: as §1, §2, §3

[4] = system: E. coli B; test: Bactericidal assay, E. coli B; format: cell-based
Protocol: as §1, §2, §3

[5] = system: E. coli 055: B5 LPS; test: Limulus amoebocyte lysate assay, neutralization of endotoxin; format: biochemical
Excerpt: The peptide selected can also have endotoxin neutralizing activity. […] Endotoxin neutralizing activity can also be measured by calculating an inhibitory dose 50 […] using standard does response methods. An inhibitory dose 50 is that amount of peptide that can inhibit 50% of the activity of endotoxin. Endotoxin activity can also be measured by determining the amount of release of tumor necrosis factor alpha (TNFα) from a macrophage cell line or by evaluating the symptoms of shock in animals. Peptides preferably neutralized endotoxin at a molar concentration of about 1×10^-4 M to about 10^-8 M , more preferably about 10^-5 M to about 10^-6 M .
The ability of synthetic peptides to neutralize endotoxin was detected with the E-TOXATE kit manufactured by Sigma Chemicals, St. Louis, Mo. […] Peptide was incubated with LPS at room temperature for 10 minutes in 100 μl of a 1:2 dilution of pyrogen-free saline, pH 6.4. The reaction was started by addition of 100 μl of amoebocyte lysate and the final volume was 200 μl.
^a The dose of peptide required to inhibit clotting of LAL by 100%.
Each tube contained 0.04 endotoxin units of E. coli LPS.

[6] = system: Pseudomonas aeruginosa type 1; format: cell-based; details: for % Killing of 5 × 10^6 Bacteria: P. aeruginosa
Protocol: Bactericidal activity can be evaluated against a variety of bacteria such as Pseudomonas spp including aeruginosa and P. cepacia, E. coli B, and Staphylococcus aureus. The preferred organism is P. aeruginosa. Bactericidal activity is determined by identifying the effective dose for killing as the molar concentration of the peptide which results in at least a 60% killing of the bacteria, as determined by standard methods. Preferably, the peptide has an effective dose at a concentration of about 1×10^-4 M to about 1×10^-10 M, and more preferably 1×10^-7 M to 1×10^-9M . […] The effective dose for bactericidal activity of B/PI is seen at about […] . Bactericidal activity can also be determined by calculating a lethal dose 50 (LD50) using standard methods. The LD50 is that amount of peptide or protein that kills 50% of the bacteria when measured using standard dose response methods. A bactericidal peptide preferably has an LD50 of about 10^-4 M to about 10^-9 M , more preferably about 10^-7 to 10^-9 M .
as §1, §2, §3

[7] = Table 7, dose required to inhibit clotting of LAL by 100%, 0.04 endotoxin units of E. coli LPS

B1: B/PI: 55 kD bactericidal/permeability increasing protein purified from human neutrophil granules (protein)
chain: MRENMARGPCNAPRWVSLMVLVAIGTAVTAAVNPGVVVRISQKGLDYASQQGTAALQKELKRIKIPDYSDSFKIKHLGKGHYSFYSMDIREFQLPSSQISMVPNVGLKFSISNANIKISGKWKAQKRFLKMSGNFDLSIEGMSISADLKLGSNPTSGKPTITCSSCSSHINSVHVHISKSKVGWLIQLFHKKIESALRNKMNSQVCEKVTNSVSSKLQPYFQTLPVMTKIDSVAGINYGLVAPPATTAETLDVQMKGEFYSENHHNPPPFAPPVMEFPAAHDRMVYLGLSDYFFNTAGLVYQEAGVLKMTLRDDMIPKESKFRLTTKFFGTFLPEVAKKFPNMKIQIHVSASTPPHLSVQPTGLTFYPAVDVQAFAVLPNSSLASLFLIGMHTTGSMEVSAESNRLVGELRLDRLLLQLKHSNIGPFPVELLQDIMNYIVPILVLPRVNEKLQKGFPLPTPARVQLYNVVLQPHQNFLLFGADVVYK
**Q.** With B1 as the molecule, how does the “% Killing of 5 × 10^6 Bacteria” value [1] read?
**A.** The value was 0%.

**Q.** And the “stability of bactericidal activity on storage” value [2]?
**A.** Its value is “stable”.

**Q.** What about the “% Killing of 5 × 10^6 Bacteria” value ([3]; pH 5.6) of the same molecule?
**A.** The value was 0%.

**Q.** What about the “% Killing of 5 × 10^6 Bacteria” value ([3]; pH 7.0) of the same molecule?
**A.** The value was 0%.

**Q.** And the “killing of P. cepacia (in words)” value ([3]; concentration 20fold higher: 9.1×10^-8 M, approximately 5 μg protein/ml)?
**A.** Its value is “not killed; also recorded: resisted bactericidal activity”.

**Q.** What about the “% Killing of 5 × 10^6 Bacteria” value ([4]; E. coli B, pH 5.6, 5.5 × 10^-9 M) of the same molecule?
**A.** The value was 71%.

**Q.** And the “% Killing of 5 × 10^6 Bacteria” value ([4]; E. coli, pH 5.6, 4.1 × 10^-9 M)?
**A.** Its value is 35 ± 4%.

**Q.** What about the “% Killing of 5 × 10^6 Bacteria” value ([4]; E. coli, pH 7.0, 4.1 × 10^-9 M) of the same molecule?
**A.** The value was 25 ± 5%.

**Q.** What about the “peptide concentration which neutralized endotoxin (100% inhibition of LPS-induced gelation)” value ([5]; 0.04 endotoxin units of E. coli 055: B5 LPS) of the same molecule?
**A.** The value was “about 10^-8 M”.

**Q.** What about the “Effective Dose (μg/0.2 ml)” value [5, 7] of the same molecule?
**A.** The value was 0.165 μg/0.2 ml.

**Q.** And the “Effective Dose M (× 10^-4)” value [5, 7]?
**A.** The value was 0.00015 M (× 10^-4).

**Q.** And the “LD50 for P. aeruginosa” value ([6]; 5×10^6 CFU, pH 5.6, dose response, linear regression)?
**A.** The value was 3.4 nM.

**Q.** And the “% Killing of 5 × 10^6 Bacteria” value ([6]; pH 5.6, 4.1 × 10^-9 M)?
**A.** The value was 50 ± 5%.

**Q.** And the “% Killing of 5 × 10^6 Bacteria” value ([6]; pH 5.6, 5.5 × 10^-9 M)?
**A.** Its value is 87 ± 8%.

**Q.** And the “% Killing of 5 × 10^6 Bacteria” value ([6]; pH 7.0, 4.1 × 10^-9 M)?
**A.** Its value is 35 ± 3%.
